Results on 4 molecules are retold here after US12018327B2, “Methods and compositions relating to epoxide hydrolase genes” (The Regents of the University of California, priority 2018, dated 2024).

The target in one series is T1, PPARγ (Homo sapiens, UniProt P37231).
T1 sequence (P37231 1-505): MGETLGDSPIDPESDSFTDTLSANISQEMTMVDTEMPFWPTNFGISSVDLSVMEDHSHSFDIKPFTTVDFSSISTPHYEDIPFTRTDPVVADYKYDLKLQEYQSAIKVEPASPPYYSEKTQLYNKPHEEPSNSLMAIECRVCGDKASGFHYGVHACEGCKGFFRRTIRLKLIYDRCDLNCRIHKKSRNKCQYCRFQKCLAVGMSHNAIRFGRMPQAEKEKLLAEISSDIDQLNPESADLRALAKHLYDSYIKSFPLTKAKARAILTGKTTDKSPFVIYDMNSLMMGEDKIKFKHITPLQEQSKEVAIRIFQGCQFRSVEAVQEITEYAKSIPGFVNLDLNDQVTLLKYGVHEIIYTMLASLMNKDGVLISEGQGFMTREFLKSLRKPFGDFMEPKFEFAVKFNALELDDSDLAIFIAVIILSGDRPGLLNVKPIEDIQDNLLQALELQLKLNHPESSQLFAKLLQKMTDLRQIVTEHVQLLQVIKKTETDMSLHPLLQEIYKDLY
Conditions: ref [19]; cited from earlier work.

Series [1] can be described thus: Colorimetric detection of EH activity, 12,13 EpOME. It is filed as biochemical. Conditions: gene expressed in E. coli BL21.

In the case of `CCCCC/C=C\CC(O)C(O)CCCCCCCC(=O)O` (stereo not shown) [9,10 DiHOME], at PPARγ, the “action on PPARγ” value is “known agonist”.

B1: NP_814872: Enterococcus faecalis epoxide hydrolase (HAD superfamily hydrolase) encoded by Gene 1, expressed in E. coli (protein)
chain: MSIKLVAIDIDGTLLNSQHKITPRVKEALQKANEQGVRIVLCTGRPLPGVKEQLDELALYGENDFVITYNGSLVQATKDNTIISRYTLSYEDFLEIEMYSRKVGAHLHTIDDSAIYTANRNIGKYTIHEASLVNMPLKYRTVDEMTPEMNIIKMMMIDEPEVLDPAIAKLPLHFTEKYTTVKSTPFYYEIMNKNASKGNALAKLADHLGLNKDEVMAIGDNENDLSMIDYAGIGVAMGNATENVKTIADVHTTSNDEDGVAQIIEKMVLI
With B1, the “conversion of 12,13 EpOME into 12,13 DiHOME” value (shortened to “conversion”) in series [1] is recorded as “could convert”.

B2: YP_003971333: Bifidobacterium bifidum PRL2010 hydrolase (epoxide hydrolase) encoded by Gene 3, expressed in E. coli (protein)
chain: MASDDIMTAGAGGATATVRADIKAAFFDIDGTLTSFVTHVIPQSSIDALHELQDRGVKVFICSGRAPSHMTVVLDMMPVHFDGIIALNGQYCFDDHGLLEKESLLPEDIVTITRWLDEHPDVVANYCEKDYVYFNQITDAMRATWRQLGKTAPTVNIDDPHERALKHETFQISPYISFEDEAKLSGMCRNVRGVRWHPDFTDLIPADGGKPEGMKRFMRHYGWTREQTIAFGDGGNDADMLAFAGIGVAMGNATEPAKAAADYITDDVDHDGIMNALKHFNVL
In the case of B2, the “conversion” value in series [1] is given as “could convert”.

B3: YP_003971091: Bifidobacterium bifidum PRL2010 hydrolase (epoxide hydrolase) encoded by Gene 2, expressed in E. coli (protein)
chain: MSQHQVTTRQRRNVVLLDLDGTLTQSDPGIIACATKAFEELSLPVPDDQEMHRFIGPAIIESFRRNHMPDELLDRGVEIYREYYADKAVFDDPNNPGHKIPGRLYNSVYAGIPEQLAALRADGLHLAIATCKPQYQAEPVCEHFHLDTMVDGIYGASTDNSRIDKDQVIRYCFDSIGFDADAGDRALMVGDRWTDVDGAIACGLDCLGCRWGYAEAGELEEHGAYRIIDTVDELAAAVNDYFAK
As for B3, the “conversion” value in series [1] is on record as “could convert”.
